Like-named read-outs stand apart in the source and are kept apart here. One block for each molecule: values may come before it.
How the values were obtained:
[1] = molecular target: beta clamp (Escherichia coli) (UniProt P0A988); details: cited from earlier work
[2] = molecular target: beta clamp (Escherichia coli) (UniProt P0A988); details: cited from earlier work; remark: listed apart in the source
[3] = molecular target: β-AF488_(2) (β sliding clamp R103C/I305C/C260S/C333S labelled with Alexa Fluor 488) (E. coli) (UniProt P0A988); experiment: other fluorescence titration; γ complex titrated into β-AF488_(2) (20 nM in the text, 10 nM in the legend) with 0.5 mM ATP; relative AF488 intensity at 520 nm, excitation 495 nm; reaction buffer 20 mM Tris–HCl pH 7.5, 50 mM NaCl, 8 mM MgCl2, 5 mM DTT, 0.5 mM EDTA, 40 μg/ml BSA, 4% glycerol; three independent experiments
[4] = molecular target: T1, WT γ complex clamp loader (γ3δδ′ψχ) (E. coli, UniProt P06710-2 1-431; P28630 1-343; P28631 1-334; P28632 1-137; P28905 1-147); experiment: as above; details: both partners purified
T1 construct: DNA polymerase III subunit γ, the truncated form of DnaX made by a translational frameshift, E. coli; DNA polymerase III subunit δ, E. coli; DNA polymerase III subunit δ′, E. coli; DNA polymerase III subunit ψ, E. coli; DNA polymerase III subunit χ, E. coli; also called WT clamp loader; source: expressed and purified as described previously [12, 25–28]; copies: 3 + + + +

Molecule: gamma complex clamp loader (from UniProt P06710)
- Kd [1]: 3.3 nM
- Kd [2]: 3.2 nM

Molecule: γ complex containing ψ–GS12–χ (γ3δδ′ψ–GS12–χ) (from UniProt P06710-2 1-431; P28630 1-343; P28631 1-334; P28632 1-137)
- Kd [3]: 2.1 nM

The remaining lines, values ahead:

- Kd [3]: 4.2 nM
Molecule: γ complex containing ψ–GS8–χ (γ3δδ′ψ–GS8–χ) (from UniProt P06710-2 1-431; P28630 1-343; P28631 1-334; P28632 1-137)

- Kd [4]: 2 nM
B1: β-AF488_(2) (β sliding clamp R103C/I305C/C260S/C333S labelled with Alexa Fluor 488) (natural protein, E. coli, UniProt P0A988 1-366, looked up)
chain: MKFTVEREHLLKPLQQVSGPLGGRPTLPILGNLLLQVADGTLSLTGTDLEMEMVARVALVQPHEPGATTVPARKFFDICRGLPEGAEIAVQLEGERMLVRSGCSRFSLSTLPAADFPNLDDWQSEVEFTLPQATMKRLIEATQFSMAHQDVRYYLNGMLFETEGEELRTVATDGHRLAVCSMPIGQSLPSHSVIVPRKGVIELMRMLDGGDNPLRVQIGSNNIRAHVGDFIFTSKLVDGRFPDYRRVLPKNPDKHLEAGSDLLKQAFARAAILSNEKFRGVRLYVSENQLKITANNPEQEEAEECLDVTYSGAEMEIGFNVSYVLDVLNALKSENVRMMLTDSVSSVQIEDAASQSAAYVVMPMRL
modifications: Alexa Fluor 488 (maleimide) on the introduced surface Cys residues (R103C, I305C)
notes: DNA polymerase III β sliding clamp, E. coli; labelled at both sides of the dimer interface; also called β-AF88_(2); β-R103C/I305C/C260S/C333S; source: expressed and purified as described previously; labelled with AF488 maleimide, purified (BioGel P6-DG desalting, HiTrap Q)

Reference: publication PMC13213242, “A novel ψ–χ fusion protein for unravelling the contributions of χ to DNA replication and repair” (Nucleic Acids Research, 2026)
